Reference: the DeepSol protein solubility set

test: soluble on expression in E. coli; label from the status in PepcDB or PDB records

Sequence	soluble on expression in E. coli
MGHHHHHHSHMSGSAMQEGLSPNHLKKAKLMFFYTRYPSSNMLKTYFSDVKFNRCITSQLIKWFSNFREFYYIQMEKYARQAINDGVTSTEELSITRDCELYRALNMHYNKANDFEVPERFLEVAQITLREFFNAIIAGKDVDPSWKKAIYKVICKLDSEVPEIFKSPNCLQELLHE	soluble
MEEYKLSHLKELEAESIHIIREVAAEFENPVMLYSIGKDSSVMVRLAEKAFYPGKVPFPLMHIDSKWKFKEMIQFRDEYAKKHGWNLIVESNMEAFHAGVGPFTHGSKVHTDLMKTQALLHALDKYKFDAAFGGARRDEEKSRAKERIFSFRDKFHQWDPKNQRPELWDIYNARVHKGESIRVFPISNWTELDIWQYIRLENIPIVPLYYAKERPVINLDGNIIMADDDRLPEKYRDQIEMKMVRFRTLGCWPLTGAVESGAATIEEIVEEMMTTTKSERTTRVIDFDQEGSMEQKKREGYF	not soluble
ANGFHYTVGFNLSDYQSEVTKFDNESKELGNWYVGQKQGEIWGYETYGLFQSEQEIAGAANQDKVSGGIKLMPGDIRFVDRNNDGVIDWGDNTVDNPGDKKIIGNSTPRYHYGINLGADWKGFDLGIFFQGVGKRDLYLPGTSFRSHYGSEWQVPSAYNNDYWTEENTGAYFPRARFNGGSAINQAQTRYMVDASYCRLKSLSIGYTLPKVLTQKASIEKIRIYFTGENLFTISDTPDGLDPELDNPYTYPMQRSLSVGLSLTF	not soluble
MLAERLVNDYDVEVLTTCVKNYVTGDNEYPEGEEILNGVLVRRFYSDPVEPDLHKSYVRQAAPAKKWRHFLYRCRLLKPLSYVKPIWHYKEQEEIKALNSQVFYSSSMYAFIRENKASYRAFIPLSFFPHTYYTALYAPEKTILIPTMHNNGSSFRSIITSVFSEVAYIGFNIEAEQKLVENIVGKPLAAHGIISVGIEKTKAADWEQTKVKYNLPEDYLLYVGRIDAIKLNNIVDYFLSYKKKYVGSRLKLVLVGGIFGKTVEHPDIIYTGFVDDAEKVAIQLNAKVIVNPSRYESLSLILLETMSEGKAMLVNGRCNVLREHCEKSNYAALYYMNRRDFMRKLHNLENSETLRQQMGEKGRHYVQENYNWEMIIGRMKNVIQMLS	not soluble
MQREQTKVFKRVAGIKDKAAIKTLISAAYRQIFERDIAPYIAQNEFSGWESKLGNGEITVKEFIEGLGYSNLYLKEFYTPYPNTKVIELGTKHFLGRAPIDQAEIRKYNQILATQGIRAFINALVNSQEYNEVFGEDTVPYRRFPTLPALEHHHHHH	soluble
MSLLDFSAHALPYASQRSPVHARRGMVATSQPQAAQVGLEILRRGGNAIDAAIATAAALTVVEPTGCGIGGDAFALVWTRGRLHGLDASGRAPGLLDRERVRAAGHERMPLYGWTPVTVPGCPAAWGELSRRFGKLPFEQLLRPAIELARDGFPVSPVIARLWQSGLDKFRAALPQRPELRAWFDEFLIDGRAPRAGEVFRQPGQADTLDELARSQCESFYRGELARAIVGHAECSGGYLRAEDLAGYQAKWVEPISLNYRGYDVWEIPPSGQGLIALMTLNILKGFEFGERDCARTWHRQLEAMKLAYVDGLHYISQPQSMRVSVEELLHEDYAASRRALIGERALDPSPGQPRPGGTVYLACGDEEGNLVSFIQSNYHGFGSGVVVPGTGIALQNRGAEFSLDPDHVNCLEPGKQTFHTIIPGFLSKDGVPLGPFGVMGAYMQPQGHVQMVMNLVDFGLNPQAALDAPRWQWLGGLRVGIEHAAPRALAAELAQRGHQVEIAYDSTSYGRGQIVLRDPASGVLCGGTEPRTDSQIAVWEGHHHHHH	not soluble
MKARIMYEAYFNLTTKPFELLPNPDFIFPSKSHKRALMYLDYGISERAGFILLTGDIGTGKTTLIRNMIQLKDERTIISRIFNTRVEPEQLLAMICHDFGIPAEGRGKVALLNELNDYLIEQFALGNRPVLIIDEAQNLSADLLEDIRLLSNLETSDTKLLQIVLVGQPELREVLALPQLLQLRQRISINCHISPLSREETEGYIFHRLDRAGNRNAVAFSSDALDIVYRYSRGIPRLVNIICDFILLSAFAEQTTEIPGEMVRDIIGDLDFENHYWGGAEVAASERAPEAARLAPGRSDEATELVATLRAVIDRLESLEGDFARMSRGVLDEMSEKVASLENAFRFHVDETDSHISEIRRRIEKVQNLEVGTTGECQPQDSPKGLLKRMFGALEHHHHHH	not soluble
SKKQLDMSQKKTLTIDSELRFDELSLDTVRDFEKLAPFGMDNKKPVFLLKDFKVSQARVMGQNGAHLKLKLEQDGQALDLVAFNMGSQLQEFQQAQHLELAVTLSVNQWNGATTLQ	not soluble
MGSDKIHHHHHHMDIKQLKYFVEIVKSGFNLSIASKTLHISQPALSQIIKNFEESEDVYLFERYKGRLNGLTPAGERFYVNAEHIINEYKNMMEDLREDSVQFKGKVRIGIPPLILGIAFSDVVAQLVANNPDIEFDIVEKGAYDLNRMLILQELDYAVLLHPHKIDKSVVTEHVLQEDELTAFLNINHPLAKKDKIDWNDLNEQLLAIFNPTFMIHHKLMQKFTDENVKLKRYIMSGSWDFLLLSTTNSDFITILPSPVHDFFENSKIIEKPFNHPITWKVILCRPKKERYSHVDQHVFKFIIDFFSKKNS	not soluble
MINKTQARRHKRKYKYRSKGNHSRSLLGMHTSPANSSMSQAIYSNDSLTTTDGVLGDESLSSETSIVSFTGENANKQKRQRLSESTENSIPEPAFLRSNVTSLTTSESDDIQQFFLENESLFQIEYKIDYKNYRDYTIVPSFGTVIPKSKCEIALICRPTGKSESDQMTISYKTVDSDNDLANGCFSEMEKIVIDIKGRSQESPIHSIPSSSGSSSTSSPSAKRRNIVDSDSD	not soluble
MAHHHHHHMPSMDSLRTAVDNAPLLVNLLRLIRNARSPNYKDHEKGPVTFHFGGLSMRDTGSYEAAEELWRQSSWSSGALAPNAAGPFRGPLHLVVYLNHSPVEVWTLQDYREPATDHSVPRDFEQLEALNTLVRVLFAHLRCQDIYGVVLQSCVTATDDANNHFPASPNGNVSSPPHFPPPRNASLSRARTPHSPANHVSLRLFRSAEDCPTMPVHARRQYLWSSDDFVRVDVTMDRTWRHHSWVQPGTQAASPVLAAGDRERDTAVCAAGERSSPIRTASPGLRHFGSEGDTRSQSISPEAMGSLDKSSLPTPYLAPAATLALSSHLSRSPRTNLSPLMPGSRLSPAQGVSEFALPPADVSSPFDCDRSRQSRSSPPIMHSCVFASSHPAGGGGATYTAAVGAVNQVEDAVWLSNAEHVRRMGTLVCSRKQSPSASSSPVMGKKPRNSFISQKHEMGSLVPSISIGALSGIGFDRRLLSSDVDLEDLAAETASSGSSASVPNSAAMEQLVSLLGLCSKVKLQHVPSAPFGDLVLSLNLREVP	not soluble
MGSDKIHHHHHHMLDSLFPIKRNYLDRNGHKLQYVNEGQGEPVVMVHGNPSWSFYYRNLVTALSPNHQCIVPDHIGCGLSDKPDDAGYDYTLKNRIDDLEALLDHLEVKEKITLIVHDWGGMIGMGYAARHPERIKKIVVLNTGAFHLPEAKPFPWALWICRNTLLGTVLVRGFNAFSSIASYVGVKRAPMPKAIREAYVAPFNSWANRISTLRFVQDIPLKPGDRNYELVSEISEKLNQFNQLPMMICWGLKDFVFDKHFLDEWKRRFPEAEVHEFADCGHYILEDASDEVVAQVQQFMAR	not soluble
MSDASLKTYQKQWAYQKYWVMAHSQQHYNALRELFKGNQWSEEKVLTFHCLIEEAQAIPPTVKSLRTAYQHVWGYFKKVASQEEKDHFKDLDAQLETKSEEMLCFLQEMTAHYQPSYLLSCRLITKGP	not soluble
MNSTSIYILVALHPIITLTNMPNTAMEATELLKEIQKHDSQQAFRSLYDMYYDRFFRIAFYYLQRDEWAQEVILDVFTTLWNHRKSQLIPDDFNKYSYILIRNAALNYLEKEQRREASPLENMPEISSSNLSPEEQMMNEELFNIYENSLNELPERCRTIFIKVREEKQSYASVAEELNISPKTVDAQLQKAVTRLKEKINNYFRNRR	not soluble
LPSSPPAEEAIIDWPVALRQSANKEDLAKEMLGMLVDYLREVETVVNTALEDEEYPASDLLHHIHKLHGSCSYSGVPRLRKICASLEQALRNGASIDELEPELFELQDEMAKVLEASRDYLN	not soluble
MAEELVLERCDLELETNGRDHHTADLCREKLVVRRGQPFWLTLHFEGRNYQASVDSLTFSVVTGPAPSQEAGTKARFPLRDAVEEGDWTATVVDQQDCTLSLQLTTPANAPIGLYRLSLEASTGYQGSSFVLGHFILLFNAWCPADAVYLDSEEERQEYVLTQQGFIYQGSAKFIKNIPWNFGQFQDGILDICLILLDVNPKFLKNAGRDCSRRSSPVYVGRVGSGMVNCNDDQGVLLGRWDNNYGDGVSPMSWIGSVDILRRWKNHGCQRVKYGQCWVFAAVACTVLRCLGIPTRVVTNYNSAHDQNSNLLIEYFRNEFGEIQGDKSEMIWNFHCWVESWMTRPDLQPGYEGWQALDPTPQEKSEGTYCCGPVPVRAIKEGDLSTKYDAPFVFAEVNADVVDWIQQDDGSVHKSINRSLIVGLKISTKSVGRDEREDITHTYKYPEGSSEEREAFTRANHLNKLAEKEETGMAMRIRVGQSMNMGSDFDVFAHITNNTAEEYVCRLLLCARTVSYNGILGPECGTKYLLNLTLEPFSEKSVPLCILYEKYRDCLTESNLIKVRALLVEPVINSYLLAERDLYLENPEIKIRILGEPKQKRKLVAEVSLQNPLPVALEGCTFTVEGAGLTEEQKTVEIPDPVEAGEEVKVRMDLVPLHMGLHKLVVNFESDKLKAVKGFRNVIIGPA	soluble
MPKRRLQTTLSEEAFRIIEKFKPDYGGINEVIEAALKLLNREDRNLSEDDILLIRLIRDLDFTGCGRSQYMHLICGDIEKAVKESMMETAVEWFLKKPFAEIELEEFLETVKRGWKVLNRVDYVEITKGDGWIQIFCEHTMRRREVSEFLAMHILNIYEKYYKGEWDVVKSISTNGFTLKFYRRV	not soluble
MDMGLREMCVGEKRTVIIPPHLGYGEAGVDGEVPGSAVLVFDIELLELVAGLPEGYMFIWNGEVSPNLFEEIDKDGNGEVLLEEFSEYIHAQVASGKGKLAPGFDAELIVKNMFTNQDRNGDGKVTAEEFKLKDQEAKQDEL	soluble
MGSDKIHHHHHHMKIAVVGGTFWDIFIFGENPHSSTIRESPGGSGLNVAYGLFLLGHTVDFYSNIGDDWRGKQIVELLEKASFDTSHMSTIQGGKTGIFIAHNDKPLAVDPGVNRKEMKLPSLSEYDLVFVTGEIPEKTIRKICENTKNVILDVGPGARFDTSDLNALVIGNERECSFRKCDVVKMGSKGARWGEVYVPGNGISYPHSIGLGDLFDIVFVHHLPLGKSKKEILEEAVKCSQILGQKENVTPFERISFLEPLSTKDDTLECPDESKDASHHGG	not soluble
MSLGMDEKSVAIVFPHHLLEDHPAAGKTSGFILVEDQLFFGDPVFGLRFHKNKLVLHRASMRYYHDHLKSRGLKAEYIQYSPDPHMGYLRDHLEGYDRVYTLELLDHELEARMKKLSMELGLEITEIEAPFIFRRNLMDGYFRDGRFLLRSFYIRERKRLSILMENSRPAGGKWTFDTENRKRMPPDLQVPAPVKLPENEYVQEAKEYVSEKFPDNPGSMDRFNYPEGHHHHHH	soluble
MGSDKIHHHHHHMNNEFYNQGLEKAKQRDYAGAIEEFSRALKLTPYFAEAYLQRGLAYYDSGAILLAVSDYTEVIRINPESVEAYYCRSLARLALKNLPGALEDVEQAIRLNINYAAAHHLRGTVRRKQGYIQDAIASFKQAAELYLQQKDQENCRLCLEKIKQLQPPKQSTIQPTKSPIAPITSVNEYFTQLLDKAEQGDTREAIADLNWILQADPQDAQAYCCRGVVRCKMGNYREAIADFNQALQLNFQDAVVYRNRGKARSLLGDHRGAIADFNQAIQIQPEDTLGYVARGNTYRAMGNYLGAIQDYGKALQINPHDAQAYYNRGIAYTFLEEMQNAVEDYQRAASIFCEQQDWENYQLTQDSLKQIQTSIPEYKQQKSNVLRQKLLRLVGGYWEIAQRLIQQQKDYQPGMSEEWYMQKVIDDLERDRGR	not soluble
